Test results taken from IntAct's records for PubMed 31515488.

B1: Nuclear protein AMMECR1 (Homo sapiens), Q9Y4X0 (parent)
chain: MAAGCCGVKKQKLSSSPPSGSGGGGGASSSSHCSGESQCRAGELGLGGAGTRLNGLGGLTGGGSGSGCTLSPPQGCGGGGGGIALSPPPSCGVGTLLSTPAAATSSSPSSSSAASSSSPGSRKMVVSAEMCCFCFDVLYCHLYGYQQPRTPRFTNEPYPLFVTWKIGRDKRLRGCIGTFSAMNLHSGLREYTLTSALKDSRFPPMTRDELPRLFCSVSLLTNFEDVCDYLDWEVGVHGIRIEFINEKGSKRTATYLPEVAKEQGWDHIQTIDSLLRKGGYKAPITNEFRKTIKLTRYRSEKMTLSYAEYLAHRQHHHFQNGIGHPLPPYNHYS
partner: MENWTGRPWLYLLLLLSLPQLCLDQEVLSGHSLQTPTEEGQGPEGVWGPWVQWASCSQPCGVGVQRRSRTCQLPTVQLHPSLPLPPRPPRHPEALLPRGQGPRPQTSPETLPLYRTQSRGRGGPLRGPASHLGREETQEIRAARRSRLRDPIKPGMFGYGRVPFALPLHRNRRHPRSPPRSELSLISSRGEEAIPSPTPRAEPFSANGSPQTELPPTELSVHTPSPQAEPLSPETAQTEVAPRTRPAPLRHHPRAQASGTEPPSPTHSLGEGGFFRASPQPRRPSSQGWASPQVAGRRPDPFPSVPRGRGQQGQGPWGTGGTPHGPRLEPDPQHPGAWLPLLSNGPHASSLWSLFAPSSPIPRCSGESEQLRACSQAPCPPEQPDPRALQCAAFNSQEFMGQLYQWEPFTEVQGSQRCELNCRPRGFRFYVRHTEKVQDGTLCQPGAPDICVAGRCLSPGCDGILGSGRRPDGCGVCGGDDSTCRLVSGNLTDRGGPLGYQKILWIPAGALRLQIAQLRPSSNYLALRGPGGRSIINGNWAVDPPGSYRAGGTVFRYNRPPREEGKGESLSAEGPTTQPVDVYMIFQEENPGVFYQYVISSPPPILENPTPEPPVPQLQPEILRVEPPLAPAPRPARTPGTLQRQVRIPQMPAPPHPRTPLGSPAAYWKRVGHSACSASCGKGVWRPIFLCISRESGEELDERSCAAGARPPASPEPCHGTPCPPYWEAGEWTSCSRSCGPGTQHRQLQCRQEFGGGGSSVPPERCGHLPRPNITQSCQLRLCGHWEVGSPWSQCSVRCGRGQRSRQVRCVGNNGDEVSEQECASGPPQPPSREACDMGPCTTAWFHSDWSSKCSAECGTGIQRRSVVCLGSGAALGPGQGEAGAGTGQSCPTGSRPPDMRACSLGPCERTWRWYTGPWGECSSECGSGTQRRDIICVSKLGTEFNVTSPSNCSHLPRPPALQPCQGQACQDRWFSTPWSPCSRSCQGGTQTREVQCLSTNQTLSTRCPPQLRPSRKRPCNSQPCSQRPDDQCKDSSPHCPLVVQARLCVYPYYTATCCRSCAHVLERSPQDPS
B2: Forkhead box protein R1 (Homo sapiens), Q6PIV2 (parent)
chain: MGNELFLAFTTSHLPLAEQKLARYKLRIVKPPKLPLEKKPNPDKDGPDYEPNLWMWVNPNIVYPPGKLEVSGRRKREDLTSTLPSSQPPQKEEDASCSEAAGVESLSQSSSKRSPPRKRFAFSPSTWELTEEEEAEDQEDSSSMALPSPHKRAPLQSRRLRQASSQAGRLWSRPPLNYFHLIALALRNSSPCGLNVQQIYSFTRKHFPFFRTAPEGWKNTVRHNLCFRDSFEKVPVSMQGGASTRPRSCLWKLTEEGHRRFAEEARALASTRLESIQQCMSQPDVMPFLFDL
partner: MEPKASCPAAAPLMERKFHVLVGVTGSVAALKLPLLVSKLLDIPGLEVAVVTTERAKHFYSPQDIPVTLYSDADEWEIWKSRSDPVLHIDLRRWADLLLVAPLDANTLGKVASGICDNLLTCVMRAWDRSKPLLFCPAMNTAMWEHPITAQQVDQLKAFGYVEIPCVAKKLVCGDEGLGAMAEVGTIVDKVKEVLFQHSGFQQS
B3: Tyrosine-protein kinase FRK (Homo sapiens), P42685 (parent)
chain: MSNICQRLWEYLEPYLPCLSTEADKSTVIENPGALCSPQSQRHGHYFVALFDYQARTAEDLSFRAGDKLQVLDTLHEGWWFARHLEKRRDGSSQQLQGYIPSNYVAEDRSLQAEPWFFGAIGRSDAEKQLLYSENKTGSFLIRESESQKGEFSLSVLDGAVVKHYRIKRLDEGGFFLTRRRIFSTLNEFVSHYTKTSDGLCVKLGKPCLKIQVPAPFDLSYKTVDQWEIDRNSIQLLKRLGSGQFGEVWEGLWNNTTPVAVKTLKPGSMDPNDFLREAQIMKNLRHPKLIQLYAVCTLEDPIYIITELMRHGSLQEYLQNDTGSKIHLTQQVDMAAQVASGMAYLESRNYIHRDLAARNVLVGEHNIYKVADFGLARVFKVDNEDIYESRHEIKLPVKWTAPEAIRSNKFSIKSDVWSFGILLYEIITYGKMPYSGMTGAQVIQMLAQNYRLPQPSNCPQQFYNIMLECWNAEPKERPTFETLRWKLEDYFETDSSYSDANNFIR
partner: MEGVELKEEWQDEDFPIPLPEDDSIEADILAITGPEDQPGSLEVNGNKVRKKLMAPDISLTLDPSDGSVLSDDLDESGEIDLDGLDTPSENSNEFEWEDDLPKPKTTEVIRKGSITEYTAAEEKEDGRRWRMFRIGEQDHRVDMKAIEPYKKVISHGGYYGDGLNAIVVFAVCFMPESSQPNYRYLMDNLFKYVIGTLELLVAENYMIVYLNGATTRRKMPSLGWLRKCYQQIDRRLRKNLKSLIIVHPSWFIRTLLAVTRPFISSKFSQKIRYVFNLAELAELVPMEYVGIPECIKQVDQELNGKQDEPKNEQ
B4: Activated CDC42 kinase 1 (Homo sapiens), Q07912-2 (parent)
chain: MQPEEGTGWLLELLSEVQLQQYFLRLRDDLNVTRLSHFEYVKNEDLEKIGMGRPGQRRLWEAVKRRKALCKRKSWMSKVFSGKRLEAEFPPHHSQSTFRKTSPAPGGPAGEGPLQSLTCLIGEKDLRLLEKLGDGSFGVVRRGEWDAPSGKTVSVAVKCLKPDVLSQPEAMDDFIREVNAMHSLDHRNLIRLYGVVLTPPMKMVTELAPLGSLLDRLRKHQGHFLLGTLSRYAVQVAEGMGYLESKRFIHRDLAARNLLLATRDLVKIGDFGLMRALPQNDDHYVMQEHRKVPFAWCAPESLKTRTFSHASDTWMFGVTLWEMFTYGQEPWIGLNGSQILHKIDKEGERLPRPEDCPQDIYNVMVQCWAHKPEDRPTFVALRDFLLEAQPTDMRALQDFEEPDKLHIQMNDVITVIEGRAENYWWRGQNTRTLCVGPFPRNVVTSVAGLSAQDISQPLQNSFIHTGHGDSDPRHCWGFPDRIDECPFSAFSPGHPPAETCGQVLWTGRREACASDPRLHPVSSRTKGL
partner: B1 partner
B5: Maspardin (Homo sapiens), Q9NZD8 (parent)
chain: MGEIKVSPDYNWFRGTVPLKKIIVDDDDSKIWSLYDAGPRSIRCPLIFLPPVSGTADVFFRQILALTGWGYRVIALQYPVYWDHLEFCDGFRKLLDHLQLDKVHLFGASLGGFLAQKFAEYTHKSPRVHSLILCNSFSDTSIFNQTWTANSFWLMPAFMLKKIVLGNFSSGPVDPMMADAIDFMVDRLESLGQSELASRLTLNCQNSYVEPHKIRDIPVTIMDVFDQSALSTEAKEEMYKLYPNARRAHLKTGGNFPYLCRSAEVNLYVQIHLLQFHGTKYAAIDPSMVSAEELEVQKGSLGISQEEQ
partner: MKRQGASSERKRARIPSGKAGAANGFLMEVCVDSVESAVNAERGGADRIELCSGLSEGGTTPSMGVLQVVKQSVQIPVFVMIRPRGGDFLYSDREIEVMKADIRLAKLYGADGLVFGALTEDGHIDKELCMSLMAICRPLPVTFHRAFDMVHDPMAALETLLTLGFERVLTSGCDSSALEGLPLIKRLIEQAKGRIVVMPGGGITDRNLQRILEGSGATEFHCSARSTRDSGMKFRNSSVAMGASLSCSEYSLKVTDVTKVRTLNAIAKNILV
B6: Zinc finger protein 488 (Homo sapiens), Q96MN9 (parent)
chain: MPEWPPCLSVAPALVITMAAGKGAPLSPSAENRWRLSEPELGRGCKPVLLEKTNRLGPEAAVGRAGRDVGSAELALLVAPGKPRPGKPLPPKTRGEQRQSAFTELPRMKDRQVDAQAQEREHDDPTGQPGAPQLTQNIPRGPAGSKVFSVWPSGARSEQRSAFSKPTKRPAERPELTSVFPAGESADALGELSGLLNTTDLACWGRLSTPKLLVGDLWNLQALPQNAPLCSTFLGAPTLWLEHTQAQVPPPSSSSTTSWALLPPTLTSLGLSTQNWCAKCNLSFRLTSDLVFHMRSHHKKEHAGPDPHSQKRREEALACPVCQEHFRERHHLSRHMTSHS
partner: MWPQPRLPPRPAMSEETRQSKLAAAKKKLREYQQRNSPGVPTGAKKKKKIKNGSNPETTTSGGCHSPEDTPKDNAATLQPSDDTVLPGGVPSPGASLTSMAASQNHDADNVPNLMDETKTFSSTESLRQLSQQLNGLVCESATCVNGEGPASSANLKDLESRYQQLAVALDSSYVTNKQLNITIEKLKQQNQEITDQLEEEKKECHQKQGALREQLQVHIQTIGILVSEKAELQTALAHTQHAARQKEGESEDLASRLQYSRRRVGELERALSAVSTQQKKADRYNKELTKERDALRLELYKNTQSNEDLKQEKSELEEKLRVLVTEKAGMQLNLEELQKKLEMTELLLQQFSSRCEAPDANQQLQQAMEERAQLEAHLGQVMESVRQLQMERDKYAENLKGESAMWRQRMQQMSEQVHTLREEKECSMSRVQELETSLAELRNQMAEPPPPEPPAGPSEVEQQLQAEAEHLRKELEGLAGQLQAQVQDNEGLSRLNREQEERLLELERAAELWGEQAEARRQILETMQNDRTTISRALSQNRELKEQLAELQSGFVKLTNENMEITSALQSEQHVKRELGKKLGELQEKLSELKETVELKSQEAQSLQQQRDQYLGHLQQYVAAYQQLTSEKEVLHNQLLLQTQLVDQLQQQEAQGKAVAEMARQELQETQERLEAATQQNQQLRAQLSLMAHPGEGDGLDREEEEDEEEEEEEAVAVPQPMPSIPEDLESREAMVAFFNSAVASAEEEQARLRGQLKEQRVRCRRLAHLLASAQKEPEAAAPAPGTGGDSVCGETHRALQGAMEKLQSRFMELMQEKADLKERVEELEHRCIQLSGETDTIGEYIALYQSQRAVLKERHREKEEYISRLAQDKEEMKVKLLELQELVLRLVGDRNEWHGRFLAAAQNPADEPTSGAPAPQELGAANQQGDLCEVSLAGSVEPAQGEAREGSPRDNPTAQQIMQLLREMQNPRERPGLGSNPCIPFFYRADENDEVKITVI
B7: Serine/threonine-protein kinase PAK 5 (Homo sapiens), Q9P286 (parent)
chain: MFGKKKKKIEISGPSNFEHRVHTGFDPQEQKFTGLPQQWHSLLADTANRPKPMVDPSCITPIQLAPMKTIVRGNKPCKETSINGLLEDFDNISVTRSNSLRKESPPTPDQGASSHGPGHAEENGFITFSQYSSESDTTADYTTEKYREKSLYGDDLDPYYRGSHAAKQNGHVMKMKHGEAYYSEVKPLKSDFARFSADYHSHLDSLSKPSEYSDLKWEYQRASSSSPLDYSFQFTPSRTAGTSGCSKESLAYSESEWGPSLDDYDRRPKSSYLNQTSPQPTMRQRSRSGSGLQEPMMPFGASAFKTHPQGHSYNSYTYPRLSEPTMCIPKVDYDRAQMVLSPPLSGSDTYPRGPAKLPQSQSKSGYSSSSHQYPSGYHKATLYHHPSLQSSSQYISTASYLSSLSLSSSTYPPPSWGSSSDQQPSRVSHEQFRAALQLVVSPGDPREYLANFIKIGEGSTGIVCIATEKHTGKQVAVKKMDLRKQQRRELLFNEVVIMRDYHHDNVVDMYSSYLVGDELWVVMEFLEGGALTDIVTHTRMNEEQIATVCLSVLRALSYLHNQGVIHRDIKSDSILLTSDGRIKLSDFGFCAQVSKEVPKRKSLVGTPYWMAPEVISRLPYGTEVDIWSLGIMVIEMIDGEPPYFNEPPLQAMRRIRDSLPPRVKDLHKVSSVLRGFLDLMLVREPSQRATAQELLGHPFLKLAGPPSCIVPLMRQYRHH
partner: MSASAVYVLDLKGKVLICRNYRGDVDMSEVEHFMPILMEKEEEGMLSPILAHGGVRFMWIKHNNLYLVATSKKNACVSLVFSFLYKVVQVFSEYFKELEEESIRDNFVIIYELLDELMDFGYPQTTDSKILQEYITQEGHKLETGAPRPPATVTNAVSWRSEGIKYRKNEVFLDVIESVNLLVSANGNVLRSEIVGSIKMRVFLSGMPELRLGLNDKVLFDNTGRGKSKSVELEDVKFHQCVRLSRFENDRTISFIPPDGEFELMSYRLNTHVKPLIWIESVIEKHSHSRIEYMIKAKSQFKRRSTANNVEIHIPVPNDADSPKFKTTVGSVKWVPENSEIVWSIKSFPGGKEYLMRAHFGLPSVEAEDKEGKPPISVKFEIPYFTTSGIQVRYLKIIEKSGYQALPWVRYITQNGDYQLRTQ

Variants of: B1
Conditions: with atl4_human ADAMTSL4, Q6UY14

Row | effect of a mutation on the interaction | Variant
1 | with no effect | R207G

Variants of: B2
Conditions: with coac_human PPCDC

Row | effect of a mutation on the interaction | Variant
2 | with no effect | W127C
3 | with no effect | A8T
4 | disrupting interaction strength | E18G

Variants of: B3
Conditions: with bnip2_human BNIP2, Q12982

Row | effect of a mutation on the interaction | Variant
5 | disrupting interaction strength | G122R

Variants of: B4
Conditions: with atl4_human ADAMTSL4, Q6UY14

Row | effect of a mutation on the interaction | Variant
6 | with no effect | R34L

Variants of: B5
Conditions: with cutc_human CUTC

Row | effect of a mutation on the interaction | Variant
7 | disrupting interaction strength | H272D
8 | with no effect | A180T

Variants of: B6
Conditions: with goga2_human GOLGA2, Q08379

Row | effect of a mutation on the interaction | Variant
9 | with no effect | A72V
10 | with no effect | C230R

Variants of: B7
Conditions: with ap1m1_human AP1M1, Q9BXS5

Row | effect of a mutation on the interaction | Variant
11 | with no effect | S511N
